B1: D815-6aa-G33 (protein)
chain: WLDQERAWLWCEISGRGCLSGGSGGSGIISQSCPESFYDWFAGQVSDPWWCW
B2: S456 (peptide)
chain 1: XGSLDESFYDWFERQLGKK
chain 2: XKEWLDQEWAWVQCEVYGRGCPSEE
modifications: not fully specified; listing feature
B3: S246 (peptide)
chain 1: ACAWPTYWNCGGGGX
chain 2: FHENFYDWFVRQVSKKX
modifications: listing feature
B4: S255 (peptide)
chain 1: SDGFYNAIELLSGGGX
chain 2: SDGFYNAIELLSGGGX
modifications: listing feature

The binders below were run against T1, human IGF-1 receptor (IGF-1R) (human, UniProt P08069) (assay: competition, TRF vs b-rhIGF-1).

IC50 [nM]	Binder
4080	WLDQERAWLWCEISGRGCLS [rD815]
3.22	WLDQERAWLWCEISGRGCLSGGSGGSGGSGGSGSLDESFYDWFERQLGKK [D815-12aa-RP9]
35.7	WLDQERAWLWCEISGRGCLSGGSGGSGSLDESFYDWFERQLGKK [D815-6aa-RP9]
417	GSLDESFYDWFERQLG [S386 / RP9 without terminal lysines]
624	B1
1450	GIISQSCPESFYDWFAGQVSDPWWCW [S326 / G33]

The binders below were run against human insulin receptor (HIR) (human, UniProt P06213) (assay: competition).

Kd [nM]	Binder
2.4	B2
3800	AAAAFYDWFAAAAAKK [S168]
2900	CGFHENFYDWFVRQVSKK [S171]
5000	B3
1600	B4
9300	HPTSKEIYAKLLK [S122]
2400	SDGFYNAIELLS [S118]
2000	HDPFYSMMKSLLK [S120]
2000	ANFYDWFVAELG [S242]

The binders below were run against T1, human IGF-1 receptor (IGF-1R) (assay: competition, TR-FRET vs b-20E2).

IC50 [nM]	Binder
460	FHENFYDWFVQRVSKK [H2C (D117)]
6290	LDALDRLMRYFEERPSL [S173]
31000	SAKNFYDWFVKK [A6]
0.88	CWARPCGDAANFYDWFVQQAS [C1 (D112)]
39.3	GSLDESFYDWFERQLG [S386 / RP9 without terminal lysines]
104	DYKDFYDAIDQLVRGSARAGGTRD [20E2 (D118)]
11300	WLEQERAWIWCEIQGSGCRA [S263 / D8B12]

The binders below were run against T1, human IGF-1 receptor (IGF-1R) (assay: competition).

Ki [nM]	Binder
4080	WLDQERAWLWCEISGRGCLS [rD815]
3	WLDQERAWLWCEISGRGCLSGGSGGSGGSGGSGSLDESFYDWFERQLGKK [D815-12aa-RP9]
36	WLDQERAWLWCEISGRGCLSGGSGGSGSLDESFYDWFERQLGKK [D815-6aa-RP9]
417	GSLDESFYDWFERQLG [S386 / RP9 without terminal lysines]
624	B1
1450	GIISQSCPESFYDWFAGQVSDPWWCW [S326 / G33]

Each binder was assayed against T1, human IGF-1 receptor (IGF-1R) (assay: competition, AlphaScreen vs b-hIGF-1).

IC50 [nM]	Binder
9	SFYSCLESLVNGPAEKSRGQWDGCRKK [RP33-IGF]
1600	EGSSINLLARAQIVELALEMGVQEE [RP54]
190	TFYSCLASLLTGTPQPNRGPWERCRKK [S327 / RP6KK]

Biological target: T1, human IGF-1 receptor (IGF-1R)
Assay: competition, TR-FRET vs b-20E2
Remark: another data set of the same source

IC50 [nM]	Binder
10	CWARPCGDAANFYDWFVQQAS [C1 (D112)]
33	GSLDESFYDWFERQLG [S386 / RP9 without terminal lysines]
100	DYKDFYDAIDQLVRGSARAGGTRD [20E2 (D118)]
961	VMDARDDPFYHKLSELVT [RP16]
8100	PPWGARFYDAIEQLVFDNL [RP4]
706	SQAGSAFYAWFDQVLRTV [RP15]
178	GIISQSCPESFYDWFAGQVSDPWWCW [S326 / G33]

From patent US7173005 (dated 2007)
